Measurements reported in patent US20250152742A1, “COMPOSITIONS AND METHODS FOR NEUROLOGICAL DISEASES” (Trames Bio, Inc., priority 2022, published 2025).
Substitutions are numbered along the chain they refer to. Numbers in names are those of the source.

Assays:
[1] = tested on: engineered chimeric receptor SEQ ID NO: 33 and its mutants (human α7-nAChR ligand binding domain / human GlyRα1 ion pore domain) in Lenti-X 293T cells; assay: YFP fluorescence quenching anion reporter plate reader assay (percent quench, EC50); assay type: cell-based; details: for YFP fluorescence quenching using Facinicline, 30 nM fac: ligand Facinicline 30 nM; for YFP fluorescence quenching using Facinicline, 300 nM fac: ligand Facinicline 300 nM; for YFP fluorescence quenching using Facinicline, 30 uM fac: ligand Facinicline 30 uM; for YFP fluorescence quenching using TC-6987, 1 uM tc6987: ligand TC-6987 1 uM; for YFP fluorescence quenching using TC-6987, 10 uM tc6987: ligand TC-6987 10 uM; for YFP fluorescence quenching using TC-6987, 500 uM tc6987: ligand TC-6987 500 uM; for YFP fluorescence quenching using CNL001 (percent quench): receptor named in row; for YFP fluorescence quenching using Varenicline, 3 nM var: ligand Varenicline 3 nM; for YFP fluorescence quenching using Varenicline, 30 nM var: ligand Varenicline 30 nM; for YFP fluorescence quenching using Varenicline, 300 nM var: ligand Varenicline 300 nM; for YFP fluorescence quenching using Varenicline, 500 nM var: ligand Varenicline 500 nM; for YFP fluorescence quenching using Varenicline, 1 uM var: ligand Varenicline 1 uM
How it was run: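 Percent quench compares mean YFP signal over the final 10 s with the 15 s baseline before ligand, added in iodide-containing extracellular solution (pH 7.2). Cells were LX293T carrying a YFP anion reporter, transiently transfected with the channel construct; plates were preincubated 30 min at 37 °C.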

[2] = tested on: engineered receptors and wild type nAchRa7 expressed in HEK293T cells; assay: High throughput electrophysiology (IonFlux HT/Mercury automated patch clamp), EC50; assay type: cell-based, human
Experimental: To confirm the […] determined by plate reader as well as develop a better understanding of maximum current flow, the engineered receptors were subjected to high throughput electrophysiology system, as described below. For HEK293T studies, cDNAs encoding ion channels were cloned into pcDNA3.1 using standard recombination techniques. HEK293T cells from Clontech (Lenti-XTM 293T Cell Line) were cultured in DMEM supplemented with 10% FBS and 1% Pen/Strep to 40-50% confluence using standard cell culture protocols, transfected with ion channel plasmids at a concentration of 18 μg per 15 cm dish using Fugene 6, and grown for an additional 24 hours. Cells were then assayed on an electrophysiological system (IonFluxHT and/or Mercury, Fluxion Biosciences) in which dose-response relationships may be assessed through a microfluidics-based platform for establishing whole cell configurations. Ensemble plates were primed with extracellular buffer (140 mM NaCl, 5 mM KCl, 2 mM CaCl2), 1 mM MgCl2, 10 mM HEPES, and 10 mM glucose, pH 7.2 with NaOH, mOsm 310), intracellular buffer (145 mM CsCl, 2 mM CaCl2, 2 mM MgCl2, 10 mM HEPES, and 10 mM EGTA, pH 7.2 with CsOH, mOsm 305), as adapted from Lynagh and Lynch, and test compounds (stocks prepared fresh) diluted in extracellular buffer. Cells were then released from the plate with Accutase, centrifuged, resuspended in extracellular buffer, and loaded into Ensemble plates. Cells were then subjected to a standard protocol for priming, trapping, breaking, and establishing whole cell configuration, with cells held at −60 mV throughout the recording. After recording baseline, progressive doses of test compounds were applied using the IonFlux software to assess dose response relationships. Data were then analyzed off-line using custom Python scripts to convert data to .csv format, re-plot traces, and apply QC measurements to reject unstable recordings (i.e. thresholding based on access resistance and/or standard deviation in baseline, as well as artifact rejection). Peak currents were then calculated, and population data were fit using a 4-parameter logistic equation as described by the Hill Equation. Currents were measured on an automated patch clamp system (Fluxion Biosciences) following 1 second addition of drug and the EC50 values calculated are tabulated below in Table 22A and Table 22B below and Table 21A and Table 21B above (in Example 2).

[3] = 3 nM brd (TC-5619/Bradanicline)
[4] = 30 nM brd (TC-5619/Bradanicline)
[5] = 300 nM brd (TC-5619/Bradanicline)

B1: CODA536: engineered receptor: L131D, S172D in SEQ ID NO: 33 (protein)
chain: MRCSPGGVWLALAASLLHVSLQGEFQRKLYKELVKNYNPLERPVANDSQPLTVYFSLSLLQIMDVDEKNQVLTTNIWLQMSWTDHYLQWNVSEYPGVKTVRFPDGQIWKPDILLYNSADERFDATFHTNVDVNSSGHCQYLPPGIFKSSCPMDLKNFPMDVQTCKLKFGSWDYGGWSLDLQMQEADISGYIPNGEWDLVGIPGKRSERFYECCKEPYPDVTFTVTMRRRMGYYLIQMYIPSLLIVILSWISFWINMDAAPARVGLGITTVLTMTTQSSGSRASLPKVSYVKAIDIWMAVCLLFVFSALLEYAAVNFVSRQHKELLRFRRKRRHHKSPMLNLFQEDEAGEGRFNFSAYGMGPACLQAKDGISVKGANNSNTTNPPPAPSKSPEEMRKLFIQRAKKIDKISRIGFPMAFLIFNMFYWIIYKIVRREDVHNQ
modifications: synthetic sequence of chimeric LGIC
[1]; 1 nM brd (TC-5619/Bradanicline)
  YFP fluorescence quenching using TC-5619/Bradanicline (percent quench): −1.24%
[1]; [3]
  YFP fluorescence quenching using TC-5619/Bradanicline (percent quench): 0.25%
[1]; 10 nM brd (TC-5619/Bradanicline)
  YFP fluorescence quenching using TC-5619/Bradanicline (percent quench): −2.57%
[1]; 30 nM TC-6683
  YFP fluorescence quenching using TC-6683 (percent quench): −22.285%
[1]; [4]
  YFP fluorescence quenching using TC-5619/Bradanicline (percent quench): 0.78%
[1]; 50 nM abt (ABT-126)
  YFP fluorescence quenching using ABT-126 (percent quench): −3.19%
[1]; 100 nM CNL002
  YFP fluorescence quenching (percent quench): 71.72%
[1]; 100 nM abt (ABT-126)
  YFP fluorescence quenching using ABT-126 (percent quench): 7.58%
[1]; 100 nM azd0328
  YFP fluorescence quenching using AZD-0328 (percent quench): 51.44%
[1]; 100 nM brd (TC-5619/Bradanicline)
  YFP fluorescence quenching using TC-5619/Bradanicline (percent quench): 4.51%
[1]; 300 nM TC-6683
  YFP fluorescence quenching using TC-6683 (percent quench): −23.926%
[1]; 300 nM abt (ABT-126)
  YFP fluorescence quenching using ABT-126 (percent quench): −1.65%
[1]; 300 nM azd0328
  YFP fluorescence quenching using AZD-0328 (percent quench): 77.12%
[1]; [5]
  YFP fluorescence quenching using TC-5619/Bradanicline (percent quench): 30.97%
[1]; 1 uM CNL002
  YFP fluorescence quenching (percent quench): 77.26%
[1]; 1 uM abt (ABT-126)
  YFP fluorescence quenching using ABT-126 (percent quench): 31.29%
[1]; 1 uM brd (TC-5619/Bradanicline)
  YFP fluorescence quenching using TC-5619/Bradanicline (percent quench): 44.41%
[1]; 3 uM TC-6683
  YFP fluorescence quenching using TC-6683 (percent quench): −20.514%
[1]; 10 uM ach (acetylcholine)
  YFP fluorescence quenching (percent quench): −12.91%
[1]; 30 uM CNL002
  YFP fluorescence quenching (percent quench): 77.5%
[1]; 30 uM TC-6683
  YFP fluorescence quenching using TC-6683 (percent quench): −3.078%
[1]; 30 uM azd0328
  YFP fluorescence quenching using AZD-0328 (percent quench): 79.26%
[1]; 100 uM TC-6683
  YFP fluorescence quenching using TC-6683 (percent quench): 7.37%
[1]; 100 uM ach (acetylcholine)
  YFP fluorescence quenching (percent quench): −20.88%
[1]; 1 mM ach (acetylcholine)
  YFP fluorescence quenching (percent quench): 79.85%
[1]; 3 mM ach (acetylcholine)
  YFP fluorescence quenching (percent quench): 79.98%
[1]
  YFP fluorescence quenching using Facinicline, 30 nM fac: 24.15
  YFP fluorescence quenching using Facinicline, 300 nM fac: 80.17
  YFP fluorescence quenching using Facinicline, 30 uM fac: 79.9
  YFP fluorescence quenching using TC-6987, 1 uM tc6987: −18.24
  YFP fluorescence quenching using TC-6987, 10 uM tc6987: −23.06
  YFP fluorescence quenching using TC-6987, 500 uM tc6987: −19.3
[1]; ligand Facinicline 10 uM
  YFP fluorescence quenching using Facinicline, 10 uM fac: 81.34
[2]; ligand AZD-0328
  fold increased potency towards AZD-0328 compared to wild type control receptor: at least 10 fold
[2]; ligand RG-3487
  fold increased potency towards RG-3487 compared to wild type receptor: at least 10 fold

B2: CODA109: engineered receptor: S170T in SEQ ID NO: 33 (protein)
chain: B1 chain with D131L, S170T, D172S
modifications: synthetic sequence of chimeric LGIC
[1]; 1 nM CNL001, first column so headed
  YFP fluorescence quenching using CNL001 (percent quench): 19.755%
[1]; 1 nM CNL001, second column so headed
  YFP fluorescence quenching using CNL001 (percent quench): 65.484%
[1]; [3]
  YFP fluorescence quenching using TC-5619/Bradanicline (percent quench): 70.58%
[1]; 10 nM CNL001, first column so headed
  YFP fluorescence quenching using CNL001 (percent quench): 79.024%
[1]; 10 nM CNL001, second column so headed
  YFP fluorescence quenching using CNL001 (percent quench): 81.563%
[1]; [4]
  YFP fluorescence quenching using TC-5619/Bradanicline (percent quench): 80.71%
[1]; 50 nM CNL001, first column so headed
  YFP fluorescence quenching using CNL001 (percent quench): 81.926%
[1]; 50 nM CNL001, second column so headed
  YFP fluorescence quenching using CNL001 (percent quench): 83.092%
[1]; 50 nM abt (ABT-126)
  YFP fluorescence quenching using ABT-126 (percent quench): 55.83%
[1]; 100 nM CNL001, first column so headed
  YFP fluorescence quenching using CNL001 (percent quench): 83%
[1]; 100 nM CNL001, second column so headed
  YFP fluorescence quenching using CNL001 (percent quench): 83.811%
[1]; 100 nM CNL002
  YFP fluorescence quenching (percent quench): 73.48%
[1]; 100 nM abt (ABT-126)
  YFP fluorescence quenching using ABT-126 (percent quench): 68.89%
[1]; 100 nM azd0328
  YFP fluorescence quenching using AZD-0328 (percent quench): 84.01%
[1]; 300 nM abt (ABT-126)
  YFP fluorescence quenching using ABT-126 (percent quench): 72.52%
[1]; 300 nM azd0328
  YFP fluorescence quenching using AZD-0328 (percent quench): 87.08%
[1]; [5]
  YFP fluorescence quenching using TC-5619/Bradanicline (percent quench): 80.66%
[1]; 1 uM CNL001, first column so headed
  YFP fluorescence quenching using CNL001 (percent quench): 81.834%
[1]; 1 uM CNL001, second column so headed
  YFP fluorescence quenching using CNL001 (percent quench): 83.858%
[1]; 1 uM CNL002
  YFP fluorescence quenching (percent quench): 70.03%
[1]; 1 uM abt (ABT-126)
  YFP fluorescence quenching using ABT-126 (percent quench): 70.96%
[1]; 10 uM ach (acetylcholine)
  YFP fluorescence quenching (percent quench): 82.91%
[1]; 30 uM ach (acetylcholine)
  YFP fluorescence quenching (percent quench): 82.53%
[1]; 30 uM azd0328
  YFP fluorescence quenching using AZD-0328 (percent quench): 87.27%
[1]; 50 uM ach (acetylcholine)
  YFP fluorescence quenching (percent quench): 82.11%
[1]; 100 uM ach (acetylcholine)
  YFP fluorescence quenching (percent quench): 83.68%
[1]; 1 mM ach (acetylcholine)
  YFP fluorescence quenching (percent quench): 69.89%
[1]; 3 mM ach (acetylcholine)
  YFP fluorescence quenching (percent quench): 78.12%
[1]
  YFP fluorescence quenching using Facinicline, 30 nM fac: 76.45
  YFP fluorescence quenching using Facinicline, 300 nM fac: 71.09
  YFP fluorescence quenching using Facinicline, 30 uM fac: 69.41
  YFP fluorescence quenching using TC-6987, 1 uM tc6987: 71.45
  YFP fluorescence quenching using TC-6987, 10 uM tc6987: 71.04
  YFP fluorescence quenching using TC-6987, 500 uM tc6987: 66.2
[1]; ligand Facinicline 100 nM
  YFP fluorescence quenching using Facinicline, 100 nM fac: 82.45
[1]; first column
  YFP fluorescence quenching using Varenicline, 3 nM var: −20.96
  YFP fluorescence quenching using Varenicline, 30 nM var: −16.094
  YFP fluorescence quenching using Varenicline, 300 nM var: 64.373
  YFP fluorescence quenching using Varenicline, 500 nM var: 71.892
  YFP fluorescence quenching using Varenicline, 1 uM var: 75.461
[1]; second column
  YFP fluorescence quenching using Varenicline, 3 nM var: −19.953
  YFP fluorescence quenching using Varenicline, 30 nM var: −21.502
  YFP fluorescence quenching using Varenicline, 300 nM var: 71.198
  YFP fluorescence quenching using Varenicline, 500 nM var: 73.53
  YFP fluorescence quenching using Varenicline, 1 uM var: 78.578
